Experimental data from patent publication US20250382352A1 (SCG CELL THERAPY PTE, published 2025).
Substitutions are numbered along the chain they refer to. Like-named read-outs stand apart in the source and are kept apart here.

B1: BsAb2-6 (C8 scFv fused to the C-terminus of the heavy chain of the murine anti-CD3 Ab via a linker) (bispecific antibody)
chain 1: not shown
chain 2: QAVVTQESALTTSPGETVTLTCRSSTGAVTTSNYANWVQEKPDHLFTGLIGGTNKRAPGVPARFSGSLIGDKAALTITGAQTEDEAIYFCALWYSNLWVFGGGTKLTVLRTVAAPSVFIFPPSDEQLKSGTASVVCLLNNFYPREAKVQWKVDNALQSGNSQESVTEQDSKDSTYSLSSTLTLSKADYEKHKVYACEVTHQGLSSPVTKSFNRGEC
B2: BsAb2-5 (C8 scFv fused to the N-terminal of the heavy chain of the murine anti-CD3 mAb) (bispecific antibody)
chain 1: not shown
chain 2: B1 chain 2
B3: BsAb2-5-020 (bispecific antibody)
heavy: not shown
light: QTVVTQEPSFSVSPGGTVTLTCRSSTGAVTTSNYANWVQQTPGQAPRGLIGGTNKRAPGVPDRFSGSILGDKAALTITGAQADDESDYYCALWYSNLWVFGGGTKLTVLRTVAAPSVFIFPPSDEQLKSGTASVVCLLNNFYPREAKVQWKVDNALQSGNSQESVTEQDSKDSTYSLSSTLTLSKADYEKHKVYACEVTHQGLSSPVTKSFNRGEC
notes: also called VH4VL5
B4: BsAb2-6-001 (bispecific antibody)
heavy: not shown
light: QTVVTQEPSLTVSPGGTVTLTCRSSTGAVTTSNYANWVQQKPGQAPRALIGGTNKRAPWTPARFSGSLLGDKAALTLSGVQPEDEAEYYCALWYSNLWVFGGGTKLTVLRTVAAPSVFIFPPSDEQLKSGTASVVCLLNNFYPREAKVQWKVDNALQSGNSQESVTEQDSKDSTYSLSSTLTLSKADYEKHKVYACEVTHQGLSSPVTKSFNRGEC
notes: also called VH1VL1; SCG2-6-001
B5: BsAb2-6-006 (bispecific antibody)
heavy: not shown
light: B4 light
notes: also called VH2VL1; SCG2-6-006
B6: BsAb2-6-012 (bispecific antibody)
heavy: not shown
light: B4 light with A48G, W59G
notes: also called VH3VL2
B7: BsAb2-6-013 (bispecific antibody)
heavy: not shown
light: B4 light with T2A, A48G, W59G, Y89F
notes: also called VH3VL3
B8: BsAb2-6-017 (bispecific antibody)
heavy: not shown
light: B4 light with A48G, W59G
notes: also called VH4VL2; SCG2-6-017
B9: BsAb2-6-021 (bispecific antibody)
heavy: not shown
light: B4 light
notes: also called VH5VL1; SCG2-6-021
B10: BsAb2-6-026 (bispecific antibody)
heavy: not shown
light: B4 light
notes: also called VH6VL1; SCG2-6-026
B11: BsAb2-6-015 (bispecific antibody)
heavy: not shown
light: B3 light
notes: also called VH3VL5
B12: BsAb2-6-020 (bispecific antibody)
heavy: not shown
light: B3 light
notes: also called VH4VL5
B13: BsAb2-6-016 (bispecific antibody)
heavy: not shown
light: B4 light
notes: also called VH4VL1; SCG2-6-016
B14: BsAb2-6-018 (bispecific antibody)
heavy: not shown
light: B4 light with T2A, A48G, W59G, Y89F
notes: also called VH4VL3
B15: BsAb2-5-011 (bispecific antibody)
heavy: not shown
light: B4 light
notes: also called VH3VL1; SCG2-5-011
B16: BsAb2-5-012 (bispecific antibody)
heavy: not shown
light: B4 light with A48G, W59G
notes: also called VH3VL2
B17: BsAb2-5-013 (bispecific antibody)
heavy: not shown
light: B4 light with T2A, A48G, W59G, Y89F
notes: also called VH3VL3
B18: BsAb2-5-018 (bispecific antibody)
heavy: not shown
light: B4 light with T2A, A48G, W59G, Y89F
notes: also called VH4VL3
B19: BsAb2-6-011 (bispecific antibody)
heavy: not shown
light: B4 light
notes: also called VH3VL1; SCG2-6-011

What was measured:
[1] = biological target: T1, rhesus CD3ε recombinant protein (rhesus); test: ELISA, recombinant rhesus CD3ε
T1 construct: also called rhesus CD38 [sic]

[2] = biological target: T2, human CD3ε recombinant protein (human, UniProt P07766 23-126); test: ELISA, recombinant human CD3ε
T2 construct: also called human CD3E; huCD3ε
T2 sequence (P07766 23-126 limits assumed): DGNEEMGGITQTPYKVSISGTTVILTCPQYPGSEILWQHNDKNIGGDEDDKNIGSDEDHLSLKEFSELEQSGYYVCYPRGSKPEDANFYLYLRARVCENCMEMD

[3] = biological target: T1, rhesus CD3ε recombinant protein; test: ELISA, recombinant rhesus CD3ε; remark: listed apart in the source
[4] = biological target: T2, human CD3ε recombinant protein; test: ELISA, recombinant human CD3ε; remark: listed apart in the source
[5] = biological target: T3, HBsAg recombinant protein (hepatitis B virus); test: ELISA, recombinant HBsAg
T3 chain: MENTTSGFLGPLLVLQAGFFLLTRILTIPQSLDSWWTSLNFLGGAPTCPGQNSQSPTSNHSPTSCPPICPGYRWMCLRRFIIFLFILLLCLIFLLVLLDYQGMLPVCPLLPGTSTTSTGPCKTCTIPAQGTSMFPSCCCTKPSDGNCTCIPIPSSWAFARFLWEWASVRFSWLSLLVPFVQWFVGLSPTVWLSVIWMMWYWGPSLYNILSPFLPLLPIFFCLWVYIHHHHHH

[6] = biological target: T3, HBsAg recombinant protein; test: ELISA, recombinant HBsAg
[7] = biological target: T4, CD3ε expressed on the surface of Jurkat cells (human, UniProt P07766 23-207); test: flow cytometry on Jurkat cells (panel title: Binding with CD3+ T cell), MFI
T4 construct: whole, on cells; also called CD3 expressed on human leukemic T cell line Jurkat; hCD3ε
T4 sequence (P07766 23-207): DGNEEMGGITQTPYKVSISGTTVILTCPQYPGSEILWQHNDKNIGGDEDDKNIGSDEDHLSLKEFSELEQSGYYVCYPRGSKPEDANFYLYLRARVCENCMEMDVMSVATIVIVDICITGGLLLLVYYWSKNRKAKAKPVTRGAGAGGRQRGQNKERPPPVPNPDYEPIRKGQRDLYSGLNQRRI

[8] = biological target: T3, HBsAg recombinant protein; test: ELISA, recombinant protein
Method: (§1) Anti-HBsAg/anti-CD3 bispecific antibodies generated in Example 1 are analyzed by standard ELISA techniques for their binding properties to HBsAg, human CD3E, and rhesus CD3ε recombinant protein, respectively.

[9] = biological target: T1, rhesus CD3ε recombinant protein; test: ELISA, recombinant protein
Method: as §1

[10] = biological target: T2, human CD3ε recombinant protein; test: ELISA, recombinant protein
Method: as §1

[11] = biological target: T3, HBsAg recombinant protein; test: SPR (Biacore), bsAb on protein A chip, antigen in flow
Method: (§2) Binding affinity of anti-HBsAg/anti-CD3 constructs to HBsAg and human/cynomolgus CD3ε is characterized by SPR using Biacore […] (GE Healthcare). Specifically, the anti-HBsAg/anti-CD3 bispecific antibodies were immobilized on protein A chip at a flow rate of 10 μL/min, and gradient dilution of huCD3ε, cynoCD3ε, or HBsAg antigen was used as the mobile phase. The binding condition was 10 μL/min×180 s. The dissociation condition was 10 μL/min×400 s and the regeneration conditions were 30 μL/min×30 s at pH1.5 Gly. FIG. 10 and FIG. 11 show the kinetic curves of bsAb-2-5 and bsAb-2-6 constructs bind to human and cynomolgus CD3 recombinant proteins, respectively. FIG. 12 show the kinetic curves of bsAb2-5 and bsAb2-6 constructs bind to HBsAg.

[12] = biological target: T5, cynomolgus CD3ε recombinant protein (cynomolgus, UniProt Q95LI5 22-117); test: as above
T5 construct: also called cynoCD3ε; cynomolgus CD38 [sic]
T5 sequence (looked up): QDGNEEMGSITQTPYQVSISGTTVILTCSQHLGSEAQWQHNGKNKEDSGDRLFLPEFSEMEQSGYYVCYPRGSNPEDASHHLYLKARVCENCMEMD
Method: as §2

[13] = biological target: T2, human CD3ε recombinant protein; test: as above
Method: as §2

Binder | EC50 [8] | EC50 [9] | EC50 [10] | Kd [11] | other results
B1 |  |  |  |  | EC50 (read off the curve) [1]: ~0.07 nM; EC50 (read off the curve) [2]: ~0.3 nM; EC50 (read off the curve) [3]: ~0.07 nM; EC50 (read off the curve) [4]: 0.1 to 0.2 nM; EC50 (read off the curve) [5]: ~0.2 nM; EC50 (read off the curve) [6]: ~0.3 nM
B2 |  |  |  |  | EC50 (read off the curve) [7]: ~0.05 nM
B3 | 0.16 nM | 0.26 nM | 0.28 nM |  | 
B4 | 0.5 nM | 0.29 nM |  | 0.0491 nM | 
B5 | 0.31 nM | 0.76 nM |  | 0.00116 nM | Kd [12]: 9.23 nM
B6 | 0.45 nM | 0.24 nM | 0.32 nM |  | 
B7 | 0.47 nM | 0.26 nM | 0.33 nM |  | 
B8 | 0.6 nM | 0.15 nM | 0.4 nM | 0.0321 nM | Kd [13]: 0.851 nM; Kd [12]: 0.737 nM
B9 | 0.8 nM | 0.83 nM |  | 0.348 nM | Kd [12]: 148 nM
B10 | 0.69 nM | 0.63 nM |  | 0.623 nM | Kd [12]: 97.4 nM
B11 | 0.33 nM | 0.18 nM | 0.19 nM |  | 
B12 | 0.56 nM | 0.12 nM | 0.32 nM |  | 
B13 | 0.71 nM | 0.36 nM | 0.8 nM | 0.054 nM | Kd [13]: 35.3 nM; Kd [12]: 36 nM
B14 | 0.73 nM | 0.16 nM | 0.5 nM |  | 
B15 | 0.2 nM | 1.99 nM | 1.85 nM | 0.0932 nM | Kd [13]: 12.4 nM
B16 | 0.16 nM | 0.24 nM | 0.32 nM |  | 
B17 | 0.17 nM | 0.26 nM | 0.33 nM |  | 
B18 | 0.12 nM | 0.24 nM | 0.33 nM |  | 
B19 | 0.44 nM | 0.34 nM | 0.66 nM | 0.375 nM | Kd [13]: 29.2 nM
